Measurements from patent US9616101B2, “Differentiation marker and differentiation control of eye cell” (Kyoto Prefectural Public University Corporation, priority 2012, dated 2017).

Experiments:
[1] = test system: corneal endothelial cell of rabbit sclerocorneal section; assay: Organ culture of rabbit sclerocorneal section with R-spondin 1: corneal endothelial cell density (ZO-1); assay type: cell-based, white rabbit; conditions: control 3674
Protocol: Eyeballs of white rabbit (Nacalai) euthanized for another object were purchased, and a sclerocorneal section was prepared. The sclerocorneal section was cultured in an incubator at 37° C. for 1 week in DMEM (INVITROGEN, catalog No.: 12320) and 10% fetal bovine serum (FBS) (BIOWEST, catalog No.: 51820-500). […] A corneal endothelial cell was subjected to nuclear staining with DAPI, and the Ki67-positive cell rate was calculated. In addition, a corneal endothelial cell was immunostained with ZO-1, and the cell density was calculated.

[2] = test system: human corneal endothelial cell; assay: Ki67 immunostaining of human corneal endothelial cells incubated with RSPO1 to 4; assay type: cell-based
Excerpt: A corneal tissue was embedded with OCT compound (catalog No.: 4583; Sakura Finetek, Tokyo, Japan), and frozen in liquid nitrogen to prepare a frozen corneal tissue section. The frozen block was sliced to 8 μm, applied on a silane-coating slide, and air-dried. For preparing the whole tissue section, a Descemet's membrane containing a corneal endothelial cell was peeled from a corneal tissue, allowed to stand in ice-cooled 100% acetone for 30 seconds, applied on a silane-coating slide, and air-dried. As a cultured corneal endothelial cell, a cell cultured on a LabTek 8-well plastic chamber slide was used. Ice-cooled 100% acetone was added to a corneal tissue and the cultured cell, the resultant was allowed to stand at 4° C. for 15 minutes to fix the cell. After shaking and washing with 0.15% TritonX/PBS-, 1% bovine serum albumin (catalog No.: A4503BSA; Sigma-Aldrich, St. Louis, Mo.) was added, and allowed to stand at room temperature for 30 minutes to perform blocking. A primary antibody was diluted with 1% BSA, and incubated at room temperature for 1 hour. As a primary antibody to be used, anti-rabbit GPR49/LGR5 (catalog No.: GTX71143; 1: 200; GeneTex Inc., San Antonio, Tex.), anti-rabbit Nestin (catalog No.: PRB-570C; 1: 200; COVANCE, Berkeley, Calif.), anti-mouse ABCG2 (catalog No.: NC_236; 1: 2; Kamiya biomedical CO., Seattle, Wash. USA), anti-mouse Ki-67 (catalog No.: 556003; 1: 200 BD Pharmingen™ NJ, USA), anti-rabbit Na^+/K^+ ATPase (catalog No.: A132; 1: 100; Zymed), and anti-rabbit ZO1 (Zymed Laboratries Inc., South San Francisco, Calif.) were used. The resultant was washed with 0.15% Triton/PBS- twice, and PBS- once.
A secondary antibody was diluted with a mixed solution of 1% BSA and 0.15% TrironX/PBS-, and incubated at room temperature for 30 minutes. As a secondary antibody to be used, Alexa™ Fluor 488-labeled (conjugated) goat anti-rabbit IgG (catalog No.: A11034; 1: 1500; Molecular Probe-Invitrogen) and Alexa™ Fluor 488-labeled (conjugated) goat anti-mouse IgG (catalog No.: A11029; 1: 1500; Molecular Probe-Invitrogen) were used. The secondary antibody was shaken and washed with 0.15% Triton/PBS- twice, and PBS- once, subjected to nuclear staining with propidium iodide (catalog No.: SP29004-41; PI; Nacalai Tesque, Inc. Kyoto, Japan), and embedded while covered with a cover glass.
In order to investigate a relationship between R-sporadin 1 (RSPO1), R-spondin 2 (RSPO2), R-spondin 3 (RSPO3), or R-spondin 4 (RSPO4) and differentiation of a corneal endothelial cell, the relationship was studied using RSPO1. Reagents used are as follows. • RSPO1 R&D systems catalog No.: 4645-RS • RSPO2 R&D systems catalog No.: 3266-RS • RSPO3 R&D systems catalog No.: 3500-RS • RSPO4 R&D systems catalog No.: 4575-RS
Then, for the purpose of investigating the influence of RSPO on cell proliferation, RSPO1 to 4 were incubated into a human corneal endothelial cell under conditions of 37° C. and 5% CO2 for 1 day. Thereafter, Ki-67 being a cell proliferation marker was immunostained.

[3] = test system: human corneal endothelial cell in the confluent state; assay: Cell density of confluent human corneal endothelial cells cultured with R-spondin 1; assay type: cell-based; conditions: R-spondin 1 10 ng/ml, 566.8 at addition
Excerpt: • (Source and culture method): As a human corneal endothelial cell, a corneal endothelial cell was mechanically peeled together with a basal membrane from a cornea for research, purchased from Seattle Eye Bank, and the corneal endothelial cell was peeled and recovered from the basal membrane using collagenase (ROCHE catalog No.: 10 103 586 001), and was subjected to primary culturing. As a medium, for human, Opti-MEM I Reduced-Serum Medium, Liquid (INVITROGEN catalog No.: 31985-070), 8% fetal bovine serum (FES) (BIOWEST, catalog No.: S1820-500), […] CaCl2.2H2O (SIGMA catalog No.: C7902-500G), 0.08% chondroitin sulfate (SIGMA catalog No.: C9819-5G), 20 μg/ml ascorbic acid (SIGMA catalog No.: A4544-25G), 50 μg/ml gentamicin (INVITROGEN catalog No.: 15710-064) and 5 ng/ml EGF (INVITROGEN catalog No.: PHG0311), acclimated for a 3T3 feeder cell, were used.
After subculturing, at the time point where cells reached confluent and were cultured for 2 weeks or longer, and no clear change in the corneal endothelium density was recognized, R-spondin 1 was added into a medium in a concentration of 10 ng/ml, and culture was continued. Observation of cell morphology was performed with a phase contrast microscope, and the cell density was calculated.

B1: R-spondin 1: Recombinant Human R-spondin 1 (R&D Cat. 4645-RS); ligand of GPR49/LGR5 (protein, listed as Homo sapiens)
chain: MRLGLCVVALVLSWTHLTISSRGIKGKRQRRISAEGSQACAKGCELCSEVNGCLKCSPKLFILLERNDIRQVGVCLPSCPPGYFDARNPDMNKCIKCKIEHCEACFSHNFCTKCKEGLYLHKGRCYPACPEGSSAANGTMECSSPAQCEMSEWSPWGPCSKKQQLCGFRRGSEERTRRVLHAPVGDHAACSDTKETRRCTVRRVPCPEGQKRRKGGQGRRENANRNLARKESKEAGAGSRRRKGQQQQQQQGTVGPLTSAGPA
[1]; 1 ng/ml R-spondin 1, 1 week
  corneal endothelial cell density: 4314 cells/mm^2
[1]; 10 ng/ml R-spondin 1, 1 week
  corneal endothelial cell density: 4626 cells/mm^2
[1]; 100 ng/ml R-spondin 1, 1 week
  corneal endothelial cell density: 5037 cells/mm^2
[2]; 50 ng/ml (FIG. 6C-C), as compared with other RSPOs
  level of the Ki67(+) cell ratio: dramatically increased
[2]; R-spondin 1 1000 ng/ml (FIG. 11)
  Ki67 staining: staining is also observed
[2]; RSPO1 50 ng/ml, 500 ng/ml (FIG. 11)
  Ki67-positive cell rate as compared with a control: increased
[2]; incubated 1 day, 37° C., 5% CO2
  proliferation of a human corneal endothelial cell (Ki-67 immunostain): statistically significantly promoted proliferation
[3]; 7th day
  corneal endothelial cell density: about 695 cells/mm^2
[3]; after 14 days
  corneal endothelial cell density: about 875 cells/mm^2
[3]; after 21 days, control without R-spondin 1 535.4
  corneal endothelial cell density: 995.8 cells/mm^2
